B1: Hairpin Ribozyme (parent)
chain: GUCCUCUUUCACGUGCGCGUGAAAGAGAGAAGUGAACCAGAGAAACACACGUUGUGGUAUAUUACCUGGUA

Experimental findings from the RNAGym collection of RNA variant scans (doi:10.7554/elife.80360) are described below.

In this series the parent is B1. Nature of the series: self-cleavage, relative activity (ratio to wild type); higher = more cleavage; co-transcriptional.
In the case of C16A A30C, the self-cleavage stood at 0.134.
In the case of C16A A30U it was 0.154; in that of G15C C48U, 0.112.
As for G15C G57U, the self-cleavage turned out to be 0.282.
As for G15C G27C, the self-cleavage was found to be 0.204.
With G15C G27U, the self-cleavage was 0.214.
In the case of C16G A28C it was 0.289.
In the case of G15C A26U it was 0.777; in that of C16G C48A, 0.0451.
In the case of C16G C48G it was 0.19.
In the case of U14G U62A, the self-cleavage worked out at 0.209.
Under G15U A41G stands 0.943; under C16A A47G, 0.197; under G15A G56A, 0.135.
Under G15A G56C stands 0.172; under C16G A30G, 0.0703.
Regarding C16G A30C, the self-cleavage came to 0.177.
With C16A A35C, the self-cleavage was found to be 1.26.
Consider C16A A35U, for which the self-cleavage was 0.789.
C16U A30C: the self-cleavage amounted to 0.0996.
G15U A59C: the self-cleavage was found to be 0.11.
Under G15U A36G stands 1.25; under G15C U53G, 0.695.
Under G15C U53C stands 1.02.
G15A A35U: the self-cleavage worked out at 0.52.
In the case of G15A A35C, the self-cleavage worked out at 0.806.
For the variant G15C A23G, the self-cleavage was determined as 1.05.
As to G15C U63C, the self-cleavage is 0.13.
In the case of C16G A47C it was 0.293; in that of G15C U60C, 1.25.
For the variant C16G A39U, the self-cleavage is 0.355.
As to C16G A39G, the self-cleavage was determined as 0.288.
In the case of C16G A31G it was 0.431; in that of G15U G17U, 1.06; in that of G15C G34U, 0.975.
On to C16U A26C, for which the self-cleavage worked out at 0.839.
C16U A59G: the self-cleavage amounted to 0.109.
With C16U A59C, the self-cleavage was determined as 0.17.
Under C16U A35U stands 0.916; under G15A U67C, 0.24; under G15A U67G, 0.234.
As to G15U G56C, the self-cleavage came to 0.195.
In the case of G15A G54A it was 0.572; in that of G15A G54C, 0.364; in that of C16U A23C, 1.03.
Under C16U A23U stands 0.992; under C16G A24U, 0.69.
With C16G A24C, the self-cleavage came to 0.688.
In the case of G15C G42A it was 0.0806; in that of C16U A61C, 0.254; in that of C16A A28C, 0.569.
In the case of C16A A28U it was 0.611; in that of C16A A28G, 0.988.
As for G15A A64G, the self-cleavage was determined as 0.528.
In the case of G15U C50G it was 0.353; in that of C16A C66G, 0.249.
On to G15C C46G, for which the self-cleavage is 0.0585.
For the variant G15U U70C, the self-cleavage was found to be 0.999.
On to G15A A39G, for which the self-cleavage turned out to be 0.287.
As to G15U C66A, the self-cleavage was determined as 0.367.
Under G15U A31C stands 0.118.
In the case of G15U C46G it was 0.167; in that of G15A U58C, 1.03.
In the case of G15A U55G it was 0.215; in that of G15A U55A, 0.146; in that of G15C U70G, 0.946.
In the case of G15C U70C, the self-cleavage worked out at 0.965.
Under G15A A43C stands 0.162; under G15U C38A, 0.124.
For the variant G15U C38U, the self-cleavage turned out to be 0.662.
Consider G15A U70A, for which the self-cleavage is 0.689.
Take G15A U70G: the self-cleavage came to 0.838.
Turning to G15C G68U, the self-cleavage turned out to be 0.235.
Under U14G G21C stands 0.342; under U14G G21A, 0.686; under G15C C65G, 0.369.
In the case of C16A G19C it was 0.736; in that of G15U G32U, 0.144; in that of G15U G32A, 0.0947.
In the case of G15A A41C it was 1.08; in that of G15U A28C, 0.619.
Turning to G15U A28G, the self-cleavage was 1.16.
With C16A A61U, the self-cleavage amounted to 0.226.
Under G15A G57C stands 0.101.
As to G15A G57A, the self-cleavage was found to be 0.167.
With C16G G32U, the self-cleavage was 0.18.
For C16A A41U, the self-cleavage came to 1.3.
Under C16A A41G stands 0.818; under C16U A45G, 0.135; under C16U A45U, 0.128.
On to G15U A35G, for which the self-cleavage was 0.933.
In the case of G15U A35C it was 1.16; in that of G15U U62A, 0.2.
As for G15U U62G, the self-cleavage came to 0.189.
As for G15U U62C, the self-cleavage was found to be 0.461.
In the case of U14G G17U it was 0.513.
Consider C16G A71U, for which the self-cleavage worked out at 0.552.
Under G15A C38U stands 0.44; under G15A U53C, 0.907; under G15C G21U, 1.06.
In the case of G15C G21C it was 0.897.
In the case of C16U A64U it was 0.162.
For the variant C16U G40C, the self-cleavage is 0.11.
Under C16U G40A stands 0.276; under C16U A39U, 0.312.
Under C16U A39C stands 0.641.
For the variant C16U A49U, the self-cleavage stood at 0.281.
In the case of C16U G19C it was 0.867; in that of C16A U67A, 0.246; in that of C16A U67C, 0.24.
For C16G U55C, the self-cleavage worked out at 0.239.
U14G G56U: the self-cleavage was determined as 0.122.
Under U14G U63G stands 0.153.
Under U14G U63C stands 0.175; under G15U U58C, 0.889; under C16G U63C, 0.204.
On to G15U G69U, for which the self-cleavage came out at 0.176.
As to C16A A23U, the self-cleavage was found to be 0.727.
Under G15C G40A stands 0.315; under G15U U20G, 0.853; under G15U U20A, 0.941.
In the case of G15U A26G it was 0.895; in that of C16G U53C, 0.949.
Under U14G G25A stands 0.384.
C16G G17A: the self-cleavage came out at 0.894.
C16G G17C: the self-cleavage turned out to be 0.717.
In the case of C16G A36G it was 1.06; in that of C16G A36C, 0.399.
In the case of G15U C16U it was 0.937.
As for U14G G51A, the self-cleavage came to 0.989.
Under G15A A23U stands 0.846; under C16A A64U, 0.14; under G15U U52G, 0.94.
Under G15U U52A stands 0.863; under G15U A45U, 0.221; under G15A C48A, 0.133.
In the case of G15A C48U, the self-cleavage was 0.0998.
Under C16G U62G stands 0.181; under C16G U62A, 0.168; under U14G U58C, 0.881.
In the case of G15A A26U it was 0.638; in that of G15A A26G, 0.835.
Turning to C16G G19A, the self-cleavage stood at 0.646.
Under C16U G29C stands 0.1.
On to G15A G29A, for which the self-cleavage is 0.118.
On to C16A C38U, for which the self-cleavage is 0.577.
Turning to C16U C38U, the self-cleavage came out at 0.443.
In the case of C16U C38G it was 0.206; in that of G15U U55G, 0.302.
In the case of G15U U55C it was 0.306; in that of C16A G42U, 0.276; in that of G15C A39G, 0.304.
Under G15C A28U stands 0.74; under G15C A36U, 0.505; under U14G U20G, 0.736.
Take C16G A23C: the self-cleavage stood at 0.763.
On to G15A U52A, for which the self-cleavage was 0.863.
In the case of C16U A28U it was 0.723; in that of C16U A28G, 1.32.
For C16A G69A, the self-cleavage is 0.308.
In the case of C16A U70G it was 0.461; in that of C16G G27U, 0.106; in that of C16G G27A, 0.37.
In the case of C16G G27C it was 0.222.
As for C16G U70G, the self-cleavage worked out at 0.508.
In the case of C16U A31U it was 0.211; in that of C16U A31G, 0.742.
